Experimental data from patent US20250282879A1 (CILAG GMBH INTERNATIONAL, published 2025).
Like-named read-outs stand apart in the source and are kept apart here.

Legend:
[1] = molecular target: T1, human IL-4R on cells (HEK-Blue IL-4/IL-13 cells, human PBMC, human whole blood) (human, UniProt P24394 26-825); experiment: cell-based or functional assay
[2] = molecular target: T1, human IL-4R on cells (HEK-Blue …); experiment: cell-based or functional assay; remark: listed apart in the source
[3] = molecular target: T2, human IL-4R on transfected HEK293T cells (human, UniProt P24394 26-825); experiment: flow cytometry, transfected HEK293T cells
T2 construct: whole, on cells; also called human IL-4R-expressing HEK293T cells; not shown: V5 Tag fused to the N-terminus of the expression construct
Excerpt: (§1) To test binding of the Morrison-H and Morrison-L antibodies PRO2198, PRO2199, PRO2206 and PRO2207 to human or cynomolgus IL-4R-expressing HEK293T cells, HEK293T cells were transfected with human and cynomolgus IL-4R plasmids and mock plasmid using Lipofectamine3000. Binding of an antibody targeting V5 Tag, which is fused to the N-terminus of human and cynomolgus IL-4R expression constructs, would confirm successful expression of both targets and was thus used as a positive control for plasma membranous binding. The Morrison-H molecule PRO2077 was used as negative control for cynomolgus IL-4R binding since this molecule had not shown any cross-reactivity to cynomolgus IL-4R (see section 5.3.).
(§2) 50,000 transfected HEK293T cells per well were seeded in a 96-well plate. 5-fold serial dilutions of the Morrison-H and Morrison-L antibodies PRO2198, PRO2199, PRO2206 and PRO2207 and of the control molecule PRO2077, which is not cross-reactive to cynomolgus IL-4R, were added at concentrations ranging from 5,000 to 0.32 ng/ml to the plates and incubated for 60 min at 4° C. on a shaker. Supernatants were removed and detection reagent was added for flow cytometry analysis. The geometric mean of the APC fluorescence intensity of single cells was calculated.

[4] = molecular target: T3, cynomolgus IL-4R on transfected HEK293T cells (cynomolgus monkey, UniProt A0A2K5V580 33-832); experiment: flow cytometry, transfected HEK293T cells
T3 construct: whole, on cells; also called cynomolgus IL-4R-expressing HEK293T cells; not shown: V5 Tag fused to the N-terminus of the expression construct
Excerpt: as §1, §2

[5] = molecular target: recombinant cynomolgus monkey IL-31 (ECD with His Tag, Sino Biological) (cynomolgus monkey); experiment: cell-based or functional assay
[6] = molecular target: T4, recombinant human IL-31 protein (Peprotech) (human, UniProt Q6EBC2 24-164); experiment: cell-based or functional assay
T4 sequence (looked up): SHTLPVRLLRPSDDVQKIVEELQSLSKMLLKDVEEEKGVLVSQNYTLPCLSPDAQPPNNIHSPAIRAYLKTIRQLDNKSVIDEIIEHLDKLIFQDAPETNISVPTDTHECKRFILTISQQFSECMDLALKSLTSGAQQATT

[7] = molecular target: T1, human IL-4R on cells (HEK-Blue …); experiment: cell-based or functional assay; remark: listed apart in the source
[8] = molecular target: T1, human IL-4R on cells (HEK-Blue …); experiment: cell-based or functional assay; remark: listed apart in the source
[9] = molecular target: T4, recombinant human IL-31 protein …; experiment: cell-based or functional assay; remark: listed apart in the source
[10] = molecular target: T5, recombinant cynomolgus monkey IL-4R (ECD with His-tag, Acro Biosystems) (cynomolgus monkey, UniProt A0A2K5V556 26-232); experiment: SPR, Morrison captured via anti-human IgG-Fc, IL-4R ECD-His analyte
T5 construct: bought; also called cynomolgus IL-4R
Experimental: (§3) Binding kinetics (including affinity) of the bispecific Morrison-H (PRO2198, PRO2199) and Morrison-L (PRO2206, PRO2207) molecules to recombinant human IL-4R protein (ECD with His Tag, Sino Biological) were determined by SPR analysis on a T200 device (Biacore, Cytiva). In this SPR experiment, Morrison molecules were captured via an anti-human IgG-Fc antibody (Human Antibody Capture Kit; Biacore, Cytiva) covalently immobilized to a carboxylmethylated dextran surface (CM5 sensorchip; Biacore, Cytiva) and a titration series of human IL-4R ECD was injected as analyte. After each analyte injection cycle, the sensor chip was regenerated (MgCl₂), and new Morrison antibody was subsequently re-captured. […] The apparent dissociation (kd) and association (kₐ) rate constants and the apparent dissociation equilibrium constant (KD) were calculated with the Biacore analysis software (Biacore Evaluation software Version 3.2, Cytiva) using one-to-one Langmuir binding model and quality of the fits was monitored based on Chi2 and U-value, which are measures for the quality of the curve fitting. The binding level was calculated as the maximum stability binding achieved normalized to the theoretical Rmax. Cross-reactivity to cynomolgus monkey IL-4R was measured using the same setup as for the analysis of human IL-4R kinetics, with the difference that recombinant cynomolgus monkey IL-4R (ECD with His-tag, Acro Biosystems) protein was used as analyte instead of human IL-4R.

[11] = molecular target: T6, recombinant human IL-4R protein (ECD with His Tag, Sino Biological) (human, UniProt P24394 26-232); experiment: as above
T6 construct: extracellular domain; bought; also called human IL-4R ECD; not shown: His Tag
Experimental: as §3

[12] = molecular target: T7, marmoset IL-4R ECD (marmoset (Callithrix jacchus), UniProt Q0PIT7 26-232); experiment: SPR, direct setup, marmoset IL-4R ECD immobilized
T7 construct: immobilized directly on the sensor chip; also called marmoset monkey IL-4R

[13] = molecular target: T8, Human IL-4R-Fc (human, UniProt P24394 26-232); experiment: SPR, hIL-4R-Fc captured, scFv analyte
T8 construct: also called human IL-4R (scFv SPR, capture setup); not shown: Fc part

[14] = molecular target: T1, human IL-4R on cells (HEK-Blue …); experiment: cell-based or functional assay; remark: listed apart in the source
[15] = molecular target: T9, human IL-4R (form not stated) (human, UniProt P24394 26-232, limits assumed); experiment: competition ELISA, hIL-4/IL-4R
T9 construct: whole entry named; also called hIL-4R
Experimental: Potency of the optimized anti-IL-4R scFvs PRO1898 and PRO1899 scFvs was determined using a competitive ELISA. The potency of each scFv to inhibit the interaction between human IL-4 and human IL-4R was assessed by ELISA as described in section 1.2.2. Similarly, to the stat-6 reporter gene assay, individual IC₅₀ values on each plate were calibrated against the IC₅₀ of the reference molecule dupilumab.

[16] = molecular target: T10, cynomolgus IL-4R-Fc (cynomolgus monkey (Macaca fascicularis), UniProt A0A2K5V580 33-239); experiment: SPR, capture setup, cynomolgus IL-4R-Fc captured
T10 construct: also called cynomolgus IL-4R capture setup; not shown: Fc part
Experimental: (§4) Affinity of the optimized anti-IL-4R scFvs PRO1898 and PRO1899 to human IL-4R was determined by SPR analysis on a T200 device (Biacore, GE Healthcare), as described above in section 1.2.2. The scFvs were measured using a dose response multi-cycle kinetic assay with seven analyte concentrations ranging from 0.12 to 90 nM diluted in running buffer. Obtained sensorgrams were fitted using a 1:1 binding model.
Affinity of the optimized anti-IL-4R scFvs PRO1898 and PRO1899 to cynomolgus IL-4R was measured using the same setup as for the analysis of human IL-4R affinities, with the difference that cynomolgus IL-4R-Fc was captured instead of human IL-4R-Fc, as described above in section 1.2.2.

[17] = molecular target: T8, Human IL-4R-Fc; experiment: SPR, hIL-4R-Fc captured, scFv analyte; remark: listed apart in the source
Experimental: as §4

T7 sequence (Q0PIT7 entry or part of it limits assumed): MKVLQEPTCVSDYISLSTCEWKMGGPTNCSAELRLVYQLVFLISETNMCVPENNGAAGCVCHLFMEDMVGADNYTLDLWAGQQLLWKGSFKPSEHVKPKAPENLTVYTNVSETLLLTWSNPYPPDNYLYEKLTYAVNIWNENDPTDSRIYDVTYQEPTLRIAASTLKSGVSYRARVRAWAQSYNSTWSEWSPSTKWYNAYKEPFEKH
T5 sequence (A0A2K5V556 entry or part of it limits assumed): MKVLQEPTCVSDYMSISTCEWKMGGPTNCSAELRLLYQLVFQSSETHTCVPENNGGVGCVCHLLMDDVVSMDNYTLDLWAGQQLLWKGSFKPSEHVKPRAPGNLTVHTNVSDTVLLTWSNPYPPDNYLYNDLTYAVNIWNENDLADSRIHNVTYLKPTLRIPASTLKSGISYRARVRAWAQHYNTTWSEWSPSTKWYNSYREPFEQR
T3 sequence (A0A2K5V580 entry or part of it): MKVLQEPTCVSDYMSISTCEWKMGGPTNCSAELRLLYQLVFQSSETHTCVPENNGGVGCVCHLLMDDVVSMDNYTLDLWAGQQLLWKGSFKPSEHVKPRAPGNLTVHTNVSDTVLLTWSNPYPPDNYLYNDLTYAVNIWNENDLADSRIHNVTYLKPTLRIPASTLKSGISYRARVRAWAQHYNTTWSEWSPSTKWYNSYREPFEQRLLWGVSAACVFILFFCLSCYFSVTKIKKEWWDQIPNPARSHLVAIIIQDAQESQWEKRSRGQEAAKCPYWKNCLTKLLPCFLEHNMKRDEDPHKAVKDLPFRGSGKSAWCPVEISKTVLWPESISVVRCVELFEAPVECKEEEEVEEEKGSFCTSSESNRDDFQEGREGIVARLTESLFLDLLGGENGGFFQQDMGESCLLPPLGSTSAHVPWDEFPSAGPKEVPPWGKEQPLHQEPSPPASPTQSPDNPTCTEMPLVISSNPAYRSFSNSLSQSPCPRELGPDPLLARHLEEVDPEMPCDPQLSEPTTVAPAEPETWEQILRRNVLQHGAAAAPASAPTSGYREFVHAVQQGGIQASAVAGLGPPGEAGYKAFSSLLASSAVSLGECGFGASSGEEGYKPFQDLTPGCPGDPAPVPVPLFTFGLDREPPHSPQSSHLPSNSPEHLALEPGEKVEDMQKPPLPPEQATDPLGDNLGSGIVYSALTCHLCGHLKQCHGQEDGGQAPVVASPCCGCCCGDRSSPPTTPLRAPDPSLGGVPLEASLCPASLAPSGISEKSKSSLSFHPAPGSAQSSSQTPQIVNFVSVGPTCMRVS

B1: PRO2199 (bispecific antibody, human IgG4 S228P, kappa)
light: DIQMTQSPSSLSASVGDRVTITCQASEDIESYLAWYQQKPGKAPKLLIYRASTLAYGVPSRFSGSGSGTDFTLTISSLQPEDFATYYCLGSSYSTGSNIFGQGTKVEIKRTVAAPSVFIFPPSDEQLKSGTASVVCLLNNFYPREAKVQWKVDNALQSGNSQESVTEQDSKDSTYSLSSTLTLSKADYEKHKVYACEVTHQGLSSPVTKSFNRGEC
heavy: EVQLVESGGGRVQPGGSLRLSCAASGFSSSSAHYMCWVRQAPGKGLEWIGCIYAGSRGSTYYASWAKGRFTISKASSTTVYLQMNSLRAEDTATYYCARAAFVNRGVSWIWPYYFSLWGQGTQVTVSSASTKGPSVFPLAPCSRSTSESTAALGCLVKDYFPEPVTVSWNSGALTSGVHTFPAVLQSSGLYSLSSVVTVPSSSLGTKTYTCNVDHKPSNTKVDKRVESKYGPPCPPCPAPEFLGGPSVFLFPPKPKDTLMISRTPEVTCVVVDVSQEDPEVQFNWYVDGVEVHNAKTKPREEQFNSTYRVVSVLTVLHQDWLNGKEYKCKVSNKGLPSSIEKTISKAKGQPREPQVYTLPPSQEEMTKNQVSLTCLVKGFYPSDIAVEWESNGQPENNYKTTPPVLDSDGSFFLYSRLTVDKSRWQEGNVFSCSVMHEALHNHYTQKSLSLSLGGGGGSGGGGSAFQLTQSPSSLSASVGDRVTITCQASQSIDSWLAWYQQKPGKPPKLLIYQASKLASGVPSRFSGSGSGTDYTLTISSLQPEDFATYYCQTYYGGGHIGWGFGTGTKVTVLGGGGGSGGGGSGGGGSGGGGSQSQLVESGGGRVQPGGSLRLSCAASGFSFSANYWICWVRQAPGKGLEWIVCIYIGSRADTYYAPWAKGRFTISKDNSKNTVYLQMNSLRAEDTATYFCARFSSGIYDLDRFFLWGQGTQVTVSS
notes: IgG4 (S228P) Morrison-H; also called Morrison-H; MorrH
- IC50, IL-4-induced TARC secretion in human whole blood [1]: < 0.5 nM
- IC50 (single analysis), human IL-13-induced signaling, stat-6 reporter gene assay [2]: 0.0113 nM
- EC50 [3]: 0.85 nM
- EC50 [4]: 1.78 nM
- IC50, cynomolgus IL-31-induced IL-31RA/OSMR dimerization (RLU) [table under the graph] [5]: 1.21 nM
- IC50 (read off the curve), human IL-31-induced IL-31RA/OSMR dimerization, with an excess of IL-4R extracellular domain in the medium [6]: ~0.1 nM
- IC50, IL-4-induced CD23 expression, memory B cells [7]: 2.53 nM
- IC50, IL-4-induced CD23 expression, monocytes (blood donor 1) [7]: 0.0697 nM
- IC50, IL-4-induced CD23 expression, naive B cells [7]: 1.1 nM
- Mean IC50, human IL-4-induced signaling, stat-6 reporter gene assay [8]: 0.0115 nM
- Mean IC50, human IL-31-induced signaling, IL-31RA/OSMR dimerization assay [9]: 0.142 nM
- Kd [10]: 0.0351 nM
- koff [10]: 3.44e-05 s⁻¹
- kon [10]: 980000 M⁻¹ s⁻¹
- Kd [11]: 0.197 nM
- koff [11]: 5.76e-05 s⁻¹
- kon [11]: 293000 M⁻¹ s⁻¹

B2: PRO1535 (scFv)
chain: DIQMTQSPSSLSASVGDRVTITCQASEDIESYLAWYQQKPGKPPKLLIYRASTLAYGVPSRFSGSGSGTDFTLTISSLQPEDFATYYCLGSSYSTGSNIFGTGTKVTVLGGGGGSGGGGSGGGGSGGGGSESQLVESGGGLVQPGGSLRLSCAASGFSSSSAHYMCWVRQAPGKGLEWIACIYAGSRGSTYYASWAKGRFTISKDNSKNTVYLQMNSLRAEDTAVYFCARAAFVNRGVSWIWPYYFSLWGQGTLVTVSS
- Kd [12]: 0.787 nM
- koff [12]: 0.00254 s⁻¹
- kon [12]: 3.23e+06 M⁻¹ s⁻¹
- Kd [13]: 0.0199 nM
- koff [13]: 5.42e-05 s⁻¹
- kon [13]: 2.72e+06 M⁻¹ s⁻¹
- IC50, neutralization of hIL-4-induced signaling, stat-6 reporter gene assay [14]: 1.15 ng/mL
- IC50, neutralization of hIL-13-induced signaling, stat-6 reporter gene assay [14]: 2.3 ng/mL

B3: PRO1898 (scFv, V domains shown)
VH: EVQLVESGGGLVQPGGSLRLSCAASGFSSSSAHYMCWVRQAPGKGLEWIGCIYAGSRGSTYYASWAKGRFTISRDNSKNTVYLQMNSLRAEDTAVYYCARAAFVNRGVSWIWPYYFSLWGQGTLVTVSS
VL: DIQMTQSPSSLSARVGDRVTITCQASEDIESYLAWYQQKPGKAPKLLIYRASTLAYGVPSRFSGSGSGRDFTLTISSLQPEDFATYYCLGSSYSTGSNIFGTGTKVTVLG
notes: scFv; VL entry ends with LCDR3 (no FR4); also called 44-34-C10-sc08
- IC50 [15]: 3.41 ng/mL
- Kd [16]: 0.0908 nM
- koff [16]: 0.000109 s⁻¹
- kon [16]: 1.2e+06 M⁻¹ s⁻¹
- Kd [17]: 0.00791 nM
- koff [17]: 1.7e-05 s⁻¹
- kon [17]: 2.15e+06 M⁻¹ s⁻¹

B4: PRO1899 (scFv, V domains shown)
VH: EVQLVESGGGRVQPGGSLRLSCAASGFSSSSAHYMCWVRQAPGKGLEWIGCIYAGSRGSTYYASWAKGRFTISKASSTTVYLQMNSLRAEDTATYYCARAAFVNRGVSWIWPYYFSLWGQGTQVTVSS
VL: DIQMTQSPSSLSASVGDRVTITCQASEDIESYLAWYQQKPGKAPKLLIYRASTLAYGVPSRFSGSGSGTDFTLTISSLQPEDFATYYCLGSSYSTGSNIFGTGTKVTVLG
notes: scFv; VL entry ends with LCDR3 (no FR4); also called 44-34-C10-sc09
- IC50 [15]: 2.98 ng/mL
- Kd [16]: 0.012 nM
- koff [16]: 0.00014 s⁻¹
- kon [16]: 1.1e+07 M⁻¹ s⁻¹
- Kd [17]: 0.00692 nM
- koff [17]: 2.04e-05 s⁻¹
- kon [17]: 2.95e+06 M⁻¹ s⁻¹
